Results taken from publication PMC3079799 (Nature chemical biology, 2011).

What was measured:
[1] = target: T1, parathyroid hormone receptor type 1 with GFP inserted in its N-terminus (^GFPPTHR) (UniProt Q03431 27-593); test: FRAP
T1 sequence: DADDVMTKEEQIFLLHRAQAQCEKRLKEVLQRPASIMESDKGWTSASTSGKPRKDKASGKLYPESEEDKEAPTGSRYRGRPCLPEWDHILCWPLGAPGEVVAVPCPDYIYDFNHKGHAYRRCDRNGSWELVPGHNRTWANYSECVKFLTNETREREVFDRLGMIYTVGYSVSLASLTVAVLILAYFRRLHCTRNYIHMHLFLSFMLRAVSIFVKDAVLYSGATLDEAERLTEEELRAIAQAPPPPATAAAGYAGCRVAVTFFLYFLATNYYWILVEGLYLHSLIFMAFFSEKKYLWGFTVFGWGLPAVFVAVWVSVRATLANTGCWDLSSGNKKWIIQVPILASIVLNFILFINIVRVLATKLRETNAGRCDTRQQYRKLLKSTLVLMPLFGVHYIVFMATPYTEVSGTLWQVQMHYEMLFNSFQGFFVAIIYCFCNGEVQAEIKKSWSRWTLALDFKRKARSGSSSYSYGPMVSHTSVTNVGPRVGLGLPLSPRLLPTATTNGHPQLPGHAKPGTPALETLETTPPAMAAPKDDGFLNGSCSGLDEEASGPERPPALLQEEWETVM

[2] = target: T1, parathyroid hormone receptor type 1 …; test: FRAP; remark: listed apart in the source

B1: β-arrestin1 fused to tdTomato (β-arr1^tom) (natural protein)
chain: MGDKGTRVFKKASPNGKLTVYLGKRDFVDHIDLVDPVDGVVLVDPEYLKERRVYVTLTCAFRYGREDLDVLGLTFRKDLFVANVQSFPPAPEDKKPLTRLQERLIKKLGEHAYPFTFEIPPNLPCSVTLQPGPEDTGKACGVDYEVKAFCAENLEEKIHKRNSVRLVIRKVQYAPERPGPQPTAETTRQFLMSDKPLHLEASLDKEIYYHGEPISVNVHVTNNTNKTVKKIKISVRQYADICLFNTAQYKCPVAMEEADDTVAPSSTFCKVYTLTPFLANNREKRGLALDGKLKHEDTNLASSTLLREGANREILGIIVSYKVKVKLVVSRGGLLGDLASSDVAVELPFTLMHPKPKEEPPHREVPENETPVDTNLIELDTNDDDIVFEDFARQRLKGMKDDKEEEEDGTGSPQLNNR
[1]
  half-life (t1/2) of fluorescence recovery (FRAP), after PTH(1-34): 30 ± 2.5 s
[2]
  half-life (t1/2) of fluorescence recovery (FRAP), after M-PTH(1-28): 69 ± 4.5 s
